The target in series [1] is T1, chymase (Homo sapiens, UniProt P23946 P23946:22-247).
T1 sequence: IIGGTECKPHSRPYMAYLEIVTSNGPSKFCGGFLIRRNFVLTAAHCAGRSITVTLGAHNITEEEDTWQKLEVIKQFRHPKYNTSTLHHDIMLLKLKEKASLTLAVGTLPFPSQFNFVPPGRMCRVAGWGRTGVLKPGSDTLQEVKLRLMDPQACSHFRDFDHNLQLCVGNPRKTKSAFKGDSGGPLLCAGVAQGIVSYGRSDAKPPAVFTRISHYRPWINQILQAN
Put plainly: inhibition; angiotensin I; recombinant 0.456. To be noted: tags: human skin mast cell, Calbiochem. As for the experimental part:
(§1) The total volume of solution for an enzyme reaction in the assay was set to 50 μL, and the reaction was performed in solution C buffer. First, 0.3-0.75 ng of chymase (recombinant, (manufactured by SIGMA) or native (manufactured by Calbiochem)) was diluted with solution C to give 5 μL thereof. Here, the recombinant is chymase expressed by yeast, and the native is chymase purified from human skin mast cell. The nucleic acid was serially diluted with solution C at a concentration of 0.0027-2 μM to give 25 μL thereof. The chymase solution (5 μL) and the nucleic acid solution (25 μL) were mixed, and the mixture was incubated at 37° C. for 5 min. […] The whole mixture was centrifuged at 4° C., 14000 rpm for 10 min, and the supernatant (30 μL) was used for the next fluorescence induction reaction.
(§2) The above-mentioned supernatant (30 μL) was added to a 96 well plate (black, manufactured by Costar), a solution (15 μL) of 2% o-phthalaldehyde (manufactured by SIGMA) in methanol and 0.3M NaOH solution (170 μL) were added to each well, and the mixture was incubated at room temperature for 10 min. […] The plate was set on a microplate reader SpectraMax190 (manufactured by Molecular device) and the fluorescence intensity was measured at an excitation wavelength of 355 nm and a fluorescence wavelength of 460 nm.

Series [2] has as its target T1, chymase. Put plainly: inhibition; angiotensin I; recombinant 0.397. To be noted: tags: human skin mast cell, Calbiochem. As for the experimental part:
as §1, §2

Series [3] deals with T2, chymase (native, human skin mast cell) (Homo sapiens, UniProt P23946 P23946:22-247).
T2 sequence: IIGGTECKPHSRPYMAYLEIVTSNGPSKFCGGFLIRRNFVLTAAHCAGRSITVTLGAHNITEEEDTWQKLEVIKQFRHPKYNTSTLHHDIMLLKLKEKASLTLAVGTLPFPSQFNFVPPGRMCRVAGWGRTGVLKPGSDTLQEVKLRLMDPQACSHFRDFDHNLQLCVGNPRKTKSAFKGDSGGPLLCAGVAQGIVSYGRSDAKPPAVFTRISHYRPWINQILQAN
Put plainly: inhibition; angiotensin I substrate; recombinant 0.235 uM. To be noted: tags: Calbiochem, stem-loop (MFOLD). The procedure:
as §1, §2

Series [4] addresses T3, chymase (recombinant) (UniProt P23946 P23946:22-247).
T3 sequence: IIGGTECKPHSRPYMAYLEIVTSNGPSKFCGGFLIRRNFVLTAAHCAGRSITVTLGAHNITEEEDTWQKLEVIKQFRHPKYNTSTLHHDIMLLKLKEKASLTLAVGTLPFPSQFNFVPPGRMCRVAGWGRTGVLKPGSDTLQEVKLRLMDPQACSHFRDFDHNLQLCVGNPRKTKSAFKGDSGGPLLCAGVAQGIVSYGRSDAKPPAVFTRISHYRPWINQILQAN
Put plainly: inhibition; SPR ++; 0.027 uM in Table 6. To be noted: tags: SIGMA, expressed in yeast; stem-loop (MFOLD). As for the experimental part: (§3) Here, Suc is a protecting succinyl group, and MCA is a 4-methylcoumaryl-7-amide group; upon cleavage of the C-terminal side of phenylalanine, AMC (7-amino-4-methyl-coumarine) is released. By detecting the fluorescence of this AMC, the enzyme activity of chymase can be determined. The assay was performed using a 96-well plate (F16 Black Maxisorp Fluoronunc, manufactured by Nunc), with a reaction mixture volume of 100 μL, in solution C as a buffer solution. First, each nucleic acid was serially diluted to 0.0027-2 μM concentrations in solution C to obtain 50 μL solutions. After 10 μL of the 1 mM substrate prepared in solution C was added thereto, the plate was set to the microplate reader SpectraMax190 (manufactured by Molecular Devices Corporation), and incubated at 37° C. for 5 minutes. […] The plate containing the reaction mixture was set to the microplate reader SpectraMax190 (manufactured by Molecular Devices Corporation), and examined for time-dependent changes in the fluorescence intensity at 37° C. for 5 minutes (or 30 minutes) (excitation wavelength 380 nm, detection wavelength 460 nm). A linear approximation of the increase in the fluorescence of the AMC released from the substrate by chymase activity was generated, and its slope was taken as the initial velocity ($Vmax$). […]
Chymase inhibitory activity was determined in the same manner as Example 3.

The target in series [5] is T1, chymase. Put plainly: inhibition; angiotensin I; recombinant 0.446. To be noted: tags: human skin mast cell, Calbiochem. As for the experimental part: as §1, §2
Series [6] addresses T1, chymase. Put plainly: inhibition; angiotensin I; recombinant 0.274. As to conditions: tags: human skin mast cell, Calbiochem. As for the experimental part: as §1, §2
Series [7] addresses T1, chymase. Put plainly: inhibition; angiotensin I; recombinant 0.354. To be noted: tags: human skin mast cell, Calbiochem. The procedure:
as §1, §2

The target in series [8] is T1, chymase. Put plainly: inhibition; Suc-AAPF-MCA, 37 C, solution C. As to conditions: tags: recombinant, expressed in yeast, SIGMA. The procedure: Here, Suc is a protecting succinyl group, and MCA is a 4-methylcoumaryl-7-amide group; upon cleavage of the C-terminal side of phenylalanine, AMC (7-amino-4-methyl-coumarine) is released. By detecting the fluorescence of this AMC, the enzyme activity of chymase can be determined. The assay was performed using a 96-well plate (F16 Black Maxisorp Fluoronunc, manufactured by Nunc), with a reaction mixture volume of 100 μL, in solution C as a buffer solution. First, each nucleic acid was serially diluted to 0.0027-2 μM concentrations in solution C to obtain 50 μL solutions. After 10 μL of the 1 mM substrate prepared in solution C was added thereto, the plate was set to the microplate reader SpectraMax190 (manufactured by Molecular Devices Corporation), and incubated at 37° C. for 5 minutes. Separately, 0.05 μg (or 0.005 μg) of chymase (recombinant, manufactured by SIGMA) was diluted in solution C to obtain a 40 μL chymase solution, and incubated at 37° C. for 5 minutes. The chymase solution was added to the mixture of the nucleic acid and substrate to initiate an enzyme reaction. The final chymase concentration in the reaction mixture was 16.7 nM (or 1.67 nM), the final substrate concentration being 100 μM. The plate containing the reaction mixture was set to the microplate reader SpectraMax190 (manufactured by Molecular Devices Corporation), and examined for time-dependent changes in the fluorescence intensity at 37° C. for 5 minutes (or 30 minutes) (excitation wavelength 380 nm, detection wavelength 460 nm). A linear approximation of the increase in the fluorescence of the AMC released from the substrate by chymase activity was generated, and its slope was taken as the initial velocity […]. For control, samples were treated and analyzed in the same manner in two cases: use of a 30N or 40N (a nucleotide of 30 or 40 consecutive bases represented by N; N is A, G, C or T) nucleic acid pool (negative control), and use of chymostatin, a known chymotrypsin-like serine protease inhibitor (positive control). Taking the initial reaction velocity without the nucleic acid and inhibitor (V_0) as a 100% enzyme activity, the inhibitory rate of each test substance was calculated using the following equation: […]
The chymase inhibitory activity was measured in the same manner as in Example 3.

Series [9] has as its target T1, chymase. Put plainly: inhibition; angiotensin I; recombinant 0.237. As to conditions: tags: human skin mast cell, Calbiochem.
In series [10] the target is T2, chymase (native, human skin mast cell). Put plainly: inhibition; angiotensin I substrate, solution C, 37 C; recombinant 0.003 uM. To be noted: tags: Calbiochem. The procedure:
as §1, §2

In series [11] the target is T3, chymase (recombinant). Put plainly: inhibition; Suc-AAPF-MCA, solution C, 37 C; SPR ++. As to conditions: tags: SIGMA, expressed in yeast. As for the experimental part:
as §3

In series [12] the target is T1, chymase. Put plainly: inhibition; angiotensin I; recombinant 0.057. As to conditions: tags: human skin mast cell, Calbiochem.
The target in series [13] is T1, chymase. Put plainly: inhibition; angiotensin I; recombinant 0.080. To be noted: tags: human skin mast cell, Calbiochem.
The target in series [14] is T1, chymase. Put plainly: inhibition; angiotensin I; recombinant 0.119. To be noted: tags: human skin mast cell, Calbiochem. The procedure:
as §1, §2

On to GGGUUAGAUAGAGUUAAAAACCC (ssRNA, 2'-F U and C; 5' PEG 40 kDa; 3' idT) [56(17)], for which the IC50 in [1] came out at 613 nM.

Take UAACUAUGGUUAGAUAGAGUUAAAAACCAUAGAAGA (ssRNA, 2'-F U and C) [SEQ 54]: in series [2], the IC50 stood at 614 nM.

Consider GGGUUAGAUAGAGUUAAAAACCC (ssRNA, 2'-F pyrimidines) [SEQ 56], for which the figures for the IC50 in series [3] and in series [4] were 508 nM and 46 nM, respectively.

In the case of GGGUAACUAUGGUUAGAUAGAGUUAAAAACCAUAGAAGACCC (ssRNA, 2'-F U and C) [SEQ 53], the IC50 in [5] turned out to be 764 nM.

Regarding GGCAGAUAGAGUUAAAGCC (ssRNA, 2'-F U and C) [SEQ 65], the IC50 in series [6] worked out at 878 nM.

CUAUGGUUAGAUAGAGUUAAAAACCAUAG (ssRNA, 2'-F U and C) [SEQ 55]: the IC50 in [7] was found to be 606 nM.

Consider GGGUUAGAUAGAGUUAAAAACCC (ssRNA, 2'-F U and C; 2'-OMe 1-3,7,8,10,13,16-20; PS 5-6) [56(22)], for which the IC50 in series [8] came to 52 nM; in series [9], 563 nM.

B1: SEQ 4 (ssRNA)
RNA: GGGACGGUAGGAAUUCGUCCAUUCUACAGAUAGAGAUAAAGUAGAAUUUAACAAAACAUAGAAGAGCGGCCGC
modifications: 2'-F pyrimidines
B1: the IC50 amounted to 31 nM in [10] and 49 nM in [11].

For the molecule GGGUUAGAUAGAGUUAAAAACCC (ssRNA, 2'-F U and C; 2'-OMe 1-3,7,10,13,16-20; PS 6-7; 5' and 3' idT) [56(34)], the IC50 amounted to 31 nM in series [8] and 162 nM in [12].

On to GGGUUAGAUAGAGUUAAAAACCC (ssRNA, 2'-F U and C; 2'-OMe 1-3,7,8,10,13,16-20; PS 5-6,6-7; 5' and 3' idT) [56(29)], for which the IC50 in series [8] stood at 36 nM; in series [13], 366 nM.

GGGUUAGAUAGAGUUAAAAACCC (ssRNA, 2'-F U and C; 2'-OMe 1-3,7,8,10,13,16-20; PS 6-7) [56(23)]: the IC50 in series [8] came out at 32 nM; in series [14], 360 nM.

The record behind these values is patent US9012420B2, “Aptamer for chymase, and use thereof” (Ribomic Inc., priority 2009, dated 2015).
